Numbered stars: 1 amine (or outer) side, 2 acyl side, 3 side chain; on linkers, the order of the positions; unused ones are H or OH. Side chains are listed from the residue outwards. Ends that are not written are not given here. * marks the point of attachment. C20 diacid = O=C(O)CCCCCCCCCCCCCCCCCCC(=O)*; γGlu = O=C(O)[C@H](CCC(=O)[*:2])N[*:1]; AEEA = NCCOCCOCC(=O)O
What was measured:
[1] = target: T1, Human CRF1 receptor (Corticotropin-Releasing Factor receptor 1) (human, UniProt P34998 24-415); assay: SPA, displacement of [125I]-Sauvagine from membranes of CHO-K1 cells expressing the CRF1 receptor
T1 construct: whole, on cells; also called type 1 CRF receptor
T1 sequence (looked up): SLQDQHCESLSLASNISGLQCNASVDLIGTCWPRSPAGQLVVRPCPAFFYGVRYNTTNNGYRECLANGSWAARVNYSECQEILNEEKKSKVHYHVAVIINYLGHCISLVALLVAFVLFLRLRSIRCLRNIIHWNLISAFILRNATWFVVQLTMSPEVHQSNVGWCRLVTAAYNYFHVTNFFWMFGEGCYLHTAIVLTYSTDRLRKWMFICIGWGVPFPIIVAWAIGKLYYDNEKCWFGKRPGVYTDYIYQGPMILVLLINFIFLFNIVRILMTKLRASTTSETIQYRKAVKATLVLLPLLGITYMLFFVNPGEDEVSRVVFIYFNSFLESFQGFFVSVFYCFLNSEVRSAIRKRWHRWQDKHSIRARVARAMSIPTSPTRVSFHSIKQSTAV
Experimental: Scintillation Proximity Assay: CHO-K1 cells expressing either the CRF₁ receptor or the CRF₂ receptor were obtained from DiscoveRx. Both cell lines were cultured at 37° C. in a humidified atmosphere with 5% CO₂. The culture media used was Ham’s F-12 Nutrient Mix with Glutamax (Gibco) containing 10% fetal bovine serum, 1% Pen/Strep, 800 µg/ml G418 and 300 µg/ml Hygromycin B. Membranes were prepared by the following protocol: cultured cells were washed twice with cold Dulbecco’s phosphate buffered saline and detached using TrypLE™ (ThermoFisher) and transferred to tubes and centrifuged for 5 minutes at 1000 g at +4° C. Pellets were resuspended in ice cold homogenization buffer (20 mM Hepes pH 7.1, 5 mM MgCl₂, 1 mg/ml Bacitracin with 2 complete EDTA-free protease inhibitor cocktail tablets/50 ml (Roche)) and then homogenized for 30 seconds using a Ultra-Turrax T25 tissue homogenizer (IKA) at medium speed. The homogenate was centrifuged at 35,000 g for 15 minutes at +4° C. using an ultracentrifuge, and the supernatant was discarded, and fresh homogenization buffer was added. Homogenization of the pellet was repeated a total of three times. The final pellet was resuspended in a few millilitres of homogenization buffer and protein concentration was determined using the Bradford method. The membrane preparation was transferred to cryotubes, and the aliquots were stored at -80° C. […]

[2] = target: T2, Pro-Link-tagged human CRF2 receptor (human, UniProt Q13324 20-411); assay: cell-based or functional assay
T2 sequence (looked up): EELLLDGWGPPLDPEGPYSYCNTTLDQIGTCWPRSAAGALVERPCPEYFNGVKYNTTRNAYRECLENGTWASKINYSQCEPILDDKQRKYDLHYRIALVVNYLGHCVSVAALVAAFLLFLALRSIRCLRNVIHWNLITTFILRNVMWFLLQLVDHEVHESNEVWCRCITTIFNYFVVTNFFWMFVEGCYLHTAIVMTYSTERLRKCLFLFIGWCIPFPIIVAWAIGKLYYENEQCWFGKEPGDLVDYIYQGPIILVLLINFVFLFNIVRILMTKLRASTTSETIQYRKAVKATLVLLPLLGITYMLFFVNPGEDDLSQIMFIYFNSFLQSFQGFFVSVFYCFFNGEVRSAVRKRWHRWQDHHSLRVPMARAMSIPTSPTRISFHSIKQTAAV

[3] = target: T3, Pro-Link-tagged human CRF1 receptor (human, UniProt P34998 24-415); assay: cell-based or functional assay
T3 sequence (looked up): T1 sequence (looked up)

[4] = target: T4, Human CRF1 receptor (Corticotropin-Releasing Factor receptor 1) (human), P34998; assay: SPA, displacement of [125I]-Sauvagine from membranes of CHO-K1 cells expressing the CRF1 receptor; conditions: remark: other sources report otherwise
T4 chain: T1 sequence (looked up)

[5] = target: T5, Human CRF2 receptor (Corticotropin-Releasing Factor receptor 2) (human) (UniProt Q13324); assay: SPA, displacement of [125I]-Sauvagine from membranes of CHO-K1 cells expressing the CRF2 receptor
T5 sequence (looked up): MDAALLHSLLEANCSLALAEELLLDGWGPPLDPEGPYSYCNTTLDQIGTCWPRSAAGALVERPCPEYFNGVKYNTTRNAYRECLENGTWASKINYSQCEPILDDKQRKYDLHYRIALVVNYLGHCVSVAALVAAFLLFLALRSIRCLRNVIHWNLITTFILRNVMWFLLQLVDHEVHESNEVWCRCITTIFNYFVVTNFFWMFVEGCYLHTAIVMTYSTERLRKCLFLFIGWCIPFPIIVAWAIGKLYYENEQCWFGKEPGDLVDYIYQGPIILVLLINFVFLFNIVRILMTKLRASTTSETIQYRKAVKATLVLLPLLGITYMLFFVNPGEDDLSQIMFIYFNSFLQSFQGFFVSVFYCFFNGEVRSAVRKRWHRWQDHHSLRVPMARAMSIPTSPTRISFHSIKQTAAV

With DNPSLSIDLTFHLLRTLLELARTQSQRERAEQNRIIFDSV-NH2 (also called human Ucn1) [Compound 1 - hUcn1 (human Urocortin 1 peptide)] the IC50 [1] was 0.07 nM, the “Human CRF2 receptor EC50 [nM] (beta-arrestin recruitment, PathHunter)” value (from here on “Human CRF2 receptor EC50 [nM]”) [2] was 31 nM and the “Human CRF1 receptor EC50 [nM] (beta-arrestin recruitment, PathHunter)” value (from here on “Human CRF1 receptor EC50 [nM]”) [3] was 22 nM.

With IVLSLDVPIGLLQILLEQARARAAREQATTNARILARV-NH2 [Compound 2 - hUcn2 (human Urocortin 2 peptide)] the IC50 [4] was 447 nM, the “Human CRF1 receptor EC50 [nM]” value [3] was > 10000 nM and the IC50 [5] was 0.58 nM.

B1: Compound 3: N{epsilon}-[C20 diacid-3xgGlu-2xAdo]Lys-[Glu33,Glu37]-hUcn2 (peptide)
peptide: K([AEEA-AEEA-γGlu-γGlu-γGlu-C20 diacid])IVLSLDVPIGLLQILLEQARARAAREQATTNAEILAEV-NH2
modifications: N-terminus assumed
SMILES: CC[C@H](C)[C@H](NC(=O)[C@H](CCC(=O)O)NC(=O)[C@H](C)NC(=O)[C@H](CC(N)=O)NC(=O)[C@@H](NC(=O)[C@@H](NC(=O)[C@H](C)NC(=O)[C@H](CCC(N)=O)NC(=O)[C@H](CCC(=O)O)NC(=O)[C@H](CCCNC(=N)N)NC(=O)[C@H](C)NC(=O)[C@H](C)NC(=O)[C@H](CCCNC(=N)N)NC(=O)[C@H](C)NC(=O)[C@H](CCCNC(=N)N)NC(=O)[C@H](C)NC(=O)[C@H](CCC(N)=O)NC(=O)[C@H](CCC(=O)O)NC(=O)[C@H](CC(C)C)NC(=O)[C@H](CC(C)C)NC(=O)[C@@H](NC(=O)[C@H](CCC(N)=O)NC(=O)[C@H](CC(C)C)NC(=O)[C@H](CC(C)C)NC(=O)CNC(=O)[C@@H](NC(=O)[C@@H]1CCCN1C(=O)[C@@H](NC(=O)[C@H](CC(=O)O)NC(=O)[C@H](CC(C)C)NC(=O)[C@H](CO)NC(=O)[C@H](CC(C)C)NC(=O)[C@@H](NC(=O)[C@@H](NC(=O)[C@@H](N)CCCCNC(=O)COCCOCCNC(=O)COCCOCCNC(=O)CC[C@H](NC(=O)CC[C@H](NC(=O)CC[C@H](NC(=O)CCCCCCCCCCCCCCCCCCC(=O)O)C(=O)O)C(=O)O)C(=O)O)[C@@H](C)CC)C(C)C)C(C)C)[C@@H](C)CC)[C@@H](C)CC)[C@@H](C)O)[C@@H](C)O)C(=O)N[C@@H](CC(C)C)C(=O)N[C@@H](C)C(=O)N[C@@H](CCC(=O)O)C(=O)N[C@H](C(N)=O)C(C)C
With B1 the “Human CRF2 receptor EC50 [nM]” value [2] was 55 nM and the “Human CRF1 receptor EC50 [nM]” value [3] was > 10000 nM.

B2: Compound 4: N{epsilon}-[C20 diacid-3xgGlu-2xAdo]Lys-[Glu33,Glu36]-hUcn2 (peptide)
peptide: K([AEEA-AEEA-γGlu-γGlu-γGlu-C20 diacid])IVLSLDVPIGLLQILLEQARARAAREQATTNAEILERV-NH2
modifications: N-terminus assumed
SMILES: CC[C@H](C)[C@H](NC(=O)[C@H](CCC(=O)O)NC(=O)[C@H](C)NC(=O)[C@H](CC(N)=O)NC(=O)[C@@H](NC(=O)[C@@H](NC(=O)[C@H](C)NC(=O)[C@H](CCC(N)=O)NC(=O)[C@H](CCC(=O)O)NC(=O)[C@H](CCCNC(=N)N)NC(=O)[C@H](C)NC(=O)[C@H](C)NC(=O)[C@H](CCCNC(=N)N)NC(=O)[C@H](C)NC(=O)[C@H](CCCNC(=N)N)NC(=O)[C@H](C)NC(=O)[C@H](CCC(N)=O)NC(=O)[C@H](CCC(=O)O)NC(=O)[C@H](CC(C)C)NC(=O)[C@H](CC(C)C)NC(=O)[C@@H](NC(=O)[C@H](CCC(N)=O)NC(=O)[C@H](CC(C)C)NC(=O)[C@H](CC(C)C)NC(=O)CNC(=O)[C@@H](NC(=O)[C@@H]1CCCN1C(=O)[C@@H](NC(=O)[C@H](CC(=O)O)NC(=O)[C@H](CC(C)C)NC(=O)[C@H](CO)NC(=O)[C@H](CC(C)C)NC(=O)[C@@H](NC(=O)[C@@H](NC(=O)[C@@H](N)CCCCNC(=O)COCCOCCNC(=O)COCCOCCNC(=O)CC[C@H](NC(=O)CC[C@H](NC(=O)CC[C@H](NC(=O)CCCCCCCCCCCCCCCCCCC(=O)O)C(=O)O)C(=O)O)C(=O)O)[C@@H](C)CC)C(C)C)C(C)C)[C@@H](C)CC)[C@@H](C)CC)[C@@H](C)O)[C@@H](C)O)C(=O)N[C@@H](CC(C)C)C(=O)N[C@@H](CCC(=O)O)C(=O)N[C@@H](CCCNC(=N)N)C(=O)N[C@H](C(N)=O)C(C)C
B2 was tested, and the “Human CRF2 receptor EC50 [nM]” value [2] was 42 nM and the “Human CRF1 receptor EC50 [nM]” value [3] was > 10000 nM.
